In the supplement of paper PMC10724198:
± gives the standard deviation of the averaged measurements.

What follows are sequences tested on Saccharomyces cerevisiae (assay: protein stability index of tFT-peptide fusion (C-terminal peptide) (PSI (0-1 scale)); higher = more stable (slower turnover)). Conditions: genetic background: das1 deletion; temperature: 30 C.
Method: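 MPS profiling in S. cerevisiae of the yeast C-terminome library: the last 12 aa of each annotated ORF are fused to the C-terminus of a sfGFP-mCherry timer, after a GGGS linker. Cells are FACS-sorted into 8 mCherry/sfGFP bins and deep-sequenced. PSI runs from 0 (unstable) to 1 (stable); wild type and das1Δ backgrounds, two technical replicates each.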

Sequence	protein stability index
GFRLRFWKSLGF [CYT2 C-terminal 12 aa]	0.706 ± 0.029
GGFDDGFDGSDF [WWM1 C-terminal 12 aa]	0.719 ± 0.012
GGKIFSLKLTLI [YPR108W-A C-terminal 12 aa]	0.673 ± 0.011
GGLSDIGKNTSN [HUG1 C-terminal 12 aa]	0.693 ± 0.013
GGNSSKKGKKKR [RQC2 C-terminal 12 aa]	0.6835 ± 0.00078
GGRNQYGGDDDY [DDR48 C-terminal 12 aa]	0.698 ± 0.015
GKKLKKIFGRKK [SEG1 C-terminal 12 aa]	0.719 ± 0.006
GKTDYLDTKLIF [EKI1 C-terminal 12 aa]	0.739 ± 0.02
GKVAKYIFDNIC [BNA7 C-terminal 12 aa]	0.696 ± 0.015
GKVLFKPSSSIF [YBR064W C-terminal 12 aa]	0.719 ± 0.011
GKYFLKEEQDEI [YUR1 C-terminal 12 aa]	0.692 ± 0.025
GKYNIKVKLNFI [VAR1 C-terminal 12 aa]	0.704 ± 0.027
GLQFHFKAEHKD [PHO86 C-terminal 12 aa]	0.701 ± 0.014
GLSDEEDSSEED [RRT14 C-terminal 12 aa]	0.679 ± 0.00072
GLVATAVKQLPQ [VPS64 C-terminal 12 aa]	0.674 ± 0.0032
GNINDDDDGFFD [PLP2 C-terminal 12 aa]	0.724 ± 0.021
GNLMRSSNVLEK [SLO1 C-terminal 12 aa]	0.685 ± 0.0076
GNSDGSVEVTEK [RKI1 C-terminal 12 aa]	0.6897 ± 0.0053
GPLLDYLSSDED [CWC2 C-terminal 12 aa]	0.7139 ± 0.0039
GQHTKTTGRRRA [RPS18A C-terminal 12 aa]	0.6995 ± 0.0039
GQIVIVHYLYDR [YOR218C C-terminal 12 aa]	0.422 ± 0.018

Sequence	protein stability index
GQPPAPFRLRSD [SDS3 C-terminal 12 aa]	0.7109 ± 0.00038
GQSLTNTGGGCC [YPT1 C-terminal 12 aa]	0.707 ± 0.011
GRVHGEEDPTKK [HSP12 C-terminal 12 aa]	0.707 ± 0.024
GSLLLYLLLKIL [INP54 C-terminal 12 aa]	0.34 ± 0.018
GSNAEEDDDLYS [CDC48 C-terminal 12 aa]	0.7027 ± 0.0045
GSPNSLLLNIGR [PHB1 C-terminal 12 aa]	0.698 ± 0.015
GTKVDDDKKNKS [SPP2 C-terminal 12 aa]	0.7041 ± 0.0011
GVFSKSSAELRF [YDL016C C-terminal 12 aa]	0.715 ± 0.013
GVYMELVKVLFG [YLR177W C-terminal 12 aa]	0.607 ± 0.015
GWDLRFEEDPSA [TRP5 C-terminal 12 aa]	0.731 ± 0.018
GYIVGVAALLFL [ANS1 C-terminal 12 aa]	0.428 ± 0.011
GYSPKPISKKEE [ALE1 C-terminal 12 aa]	0.719 ± 0.011
GYWEDVFVHLAL [HMLALPHA1 C-terminal 12 aa]	0.7685 ± 0.0061
HDELKYPVDMVI [PDR17 C-terminal 12 aa]	0.705 ± 0.022
HELKTHLPLNLI [SMT1 C-terminal 12 aa]	0.707 ± 0.018
HEVQNAEQEVAQ [MAK16 C-terminal 12 aa]	0.673 ± 0.0074
HHLTYLPSVPSL [MMO1 C-terminal 12 aa]	0.715 ± 0.025
HHNQIGVPRVEN [GID8 C-terminal 12 aa]	0.679 ± 0.013
HKELLAKLEGSD [HNT1 C-terminal 12 aa]	0.688 ± 0.0052
HNLHSYEKRLYN [IMD4 C-terminal 12 aa]	0.702 ± 0.025
HQKTKTLASLSI [NUP49 C-terminal 12 aa]	0.707 ± 0.014

Sequence	protein stability index
HQNENMFLTELY [YDL247W-A C-terminal 12 aa]	0.7214 ± 0.0031
HTRQGNITQTKY [YKL100W-A C-terminal 12 aa]	0.698 ± 0.017
HYEAVRANFEGA [PEX6 C-terminal 12 aa]	0.7023 ± 0.0047
IADASSLSWNMK [LEM3 C-terminal 12 aa]	0.697 ± 0.038
IAEIASAVDKYS [MHT1 C-terminal 12 aa]	0.7183 ± 0.0018
IAIGFGVGITRE [BUD8 C-terminal 12 aa]	0.688 ± 0.035
IARPFELKYFGR [FCY21 C-terminal 12 aa]	0.7199 ± 0.006
IATIENKFDFEI [YCR099C C-terminal 12 aa]	0.712 ± 0.013
IAVNYCMFGRSY [YHR020W C-terminal 12 aa]	0.685 ± 0.022
ICFREFFDRVET [YJL077W-B C-terminal 12 aa]	0.714 ± 0.056
IDFLVEEATLNE [YAP3 C-terminal 12 aa]	0.70065 ± 9.1e-05
IEAATQAFLDSQ [WIP1 C-terminal 12 aa]	0.698 ± 0.013
IERLFKEEEYYS [TCD1 C-terminal 12 aa]	0.70198 ± 0.00056
IGIGFGVGIIRE [BUD9 C-terminal 12 aa]	0.698 ± 0.052
IIQDNISPRLVV [RRP46 C-terminal 12 aa]	0.661 ± 0.034
IIQKETQSAGDK [PZF1 C-terminal 12 aa]	0.661 ± 0.013
IKGKFYVKILGN [YGR115C C-terminal 12 aa]	0.635 ± 0.036
IKIFSERCDGKV [JJJ2 C-terminal 12 aa]	0.7066 ± 0.002
IKLLKTHNRMSL [YNL277W-A C-terminal 12 aa]	0.6846 ± 0.0031

Same assay, conditions: genetic background: wild type; temperature: 30 C

Sequence	protein stability index
GFRLRFWKSLGF [CYT2 C-terminal 12 aa]	0.716 ± 0.023
GGFDDGFDGSDF [WWM1 C-terminal 12 aa]	0.728 ± 0.0098
GGKIFSLKLTLI [YPR108W-A C-terminal 12 aa]	0.384 ± 0.023
GGLSDIGKNTSN [HUG1 C-terminal 12 aa]	0.684 ± 0.016
GGNSSKKGKKKR [RQC2 C-terminal 12 aa]	0.724 ± 0.022
GGRNQYGGDDDY [DDR48 C-terminal 12 aa]	0.6858 ± 0.0067
GKKLKKIFGRKK [SEG1 C-terminal 12 aa]	0.6627 ± 0.0025
GKTDYLDTKLIF [EKI1 C-terminal 12 aa]	0.726 ± 0.0084
GKVAKYIFDNIC [BNA7 C-terminal 12 aa]	0.722 ± 0.024
GKVLFKPSSSIF [YBR064W C-terminal 12 aa]	0.695 ± 0.017
GKYFLKEEQDEI [YUR1 C-terminal 12 aa]	0.7058 ± 0.0067
GKYNIKVKLNFI [VAR1 C-terminal 12 aa]	0.69 ± 0.096
GLQFHFKAEHKD [PHO86 C-terminal 12 aa]	0.686 ± 0.058
GLSDEEDSSEED [RRT14 C-terminal 12 aa]	0.698 ± 0.021
GLVATAVKQLPQ [VPS64 C-terminal 12 aa]	0.662 ± 0.014
GNINDDDDGFFD [PLP2 C-terminal 12 aa]	0.698 ± 0.019
GNLMRSSNVLEK [SLO1 C-terminal 12 aa]	0.7 ± 0.016
GNSDGSVEVTEK [RKI1 C-terminal 12 aa]	0.705 ± 0.03
GPLLDYLSSDED [CWC2 C-terminal 12 aa]	0.693 ± 0.0055
GQHTKTTGRRRA [RPS18A C-terminal 12 aa]	0.686 ± 0.032
GQIVIVHYLYDR [YOR218C C-terminal 12 aa]	0.445 ± 0.051

Sequence	protein stability index
GQPPAPFRLRSD [SDS3 C-terminal 12 aa]	0.709 ± 0.049
GQSLTNTGGGCC [YPT1 C-terminal 12 aa]	0.6389 ± 0.00065
GRVHGEEDPTKK [HSP12 C-terminal 12 aa]	0.6953 ± 0.0032
GSLLLYLLLKIL [INP54 C-terminal 12 aa]	0.119 ± 0.0017
GSNAEEDDDLYS [CDC48 C-terminal 12 aa]	0.653 ± 0.03
GSPNSLLLNIGR [PHB1 C-terminal 12 aa]	0.719 ± 0.016
GTKVDDDKKNKS [SPP2 C-terminal 12 aa]	0.663 ± 0.03
GVFSKSSAELRF [YDL016C C-terminal 12 aa]	0.706 ± 0.023
GVYMELVKVLFG [YLR177W C-terminal 12 aa]	0.631 ± 0.013
GWDLRFEEDPSA [TRP5 C-terminal 12 aa]	0.6905 ± 0.0042
GYIVGVAALLFL [ANS1 C-terminal 12 aa]	0.4532 ± 0.004
GYSPKPISKKEE [ALE1 C-terminal 12 aa]	0.648 ± 0.012
GYWEDVFVHLAL [HMLALPHA1 C-terminal 12 aa]	0.757 ± 0.012
HDELKYPVDMVI [PDR17 C-terminal 12 aa]	0.757 ± 0.058
HELKTHLPLNLI [SMT1 C-terminal 12 aa]	0.697 ± 0.037
HEVQNAEQEVAQ [MAK16 C-terminal 12 aa]	0.681 ± 0.034
HHLTYLPSVPSL [MMO1 C-terminal 12 aa]	0.71 ± 0.053
HHNQIGVPRVEN [GID8 C-terminal 12 aa]	0.674 ± 0.011
HKELLAKLEGSD [HNT1 C-terminal 12 aa]	0.703 ± 0.025
HNLHSYEKRLYN [IMD4 C-terminal 12 aa]	0.672 ± 0.013
HQKTKTLASLSI [NUP49 C-terminal 12 aa]	0.631 ± 0.0093

Sequence	protein stability index
HQNENMFLTELY [YDL247W-A C-terminal 12 aa]	0.707 ± 0.067
HTRQGNITQTKY [YKL100W-A C-terminal 12 aa]	0.692 ± 0.043
HYEAVRANFEGA [PEX6 C-terminal 12 aa]	0.724 ± 0.012
IADASSLSWNMK [LEM3 C-terminal 12 aa]	0.719 ± 0.011
IAEIASAVDKYS [MHT1 C-terminal 12 aa]	0.726 ± 0.047
IAIGFGVGITRE [BUD8 C-terminal 12 aa]	0.739 ± 0.022
IARPFELKYFGR [FCY21 C-terminal 12 aa]	0.718 ± 0.001
IATIENKFDFEI [YCR099C C-terminal 12 aa]	0.694 ± 0.042
IAVNYCMFGRSY [YHR020W C-terminal 12 aa]	0.73 ± 0.061
ICFREFFDRVET [YJL077W-B C-terminal 12 aa]	0.6732 ± 0.0058
IDFLVEEATLNE [YAP3 C-terminal 12 aa]	0.673 ± 0.032
IEAATQAFLDSQ [WIP1 C-terminal 12 aa]	0.715 ± 0.051
IERLFKEEEYYS [TCD1 C-terminal 12 aa]	0.703 ± 0.011
IGIGFGVGIIRE [BUD9 C-terminal 12 aa]	0.686 ± 0.036
IIQDNISPRLVV [RRP46 C-terminal 12 aa]	0.665 ± 0.017
IIQKETQSAGDK [PZF1 C-terminal 12 aa]	0.678 ± 0.024
IKGKFYVKILGN [YGR115C C-terminal 12 aa]	0.648 ± 0.012
IKIFSERCDGKV [JJJ2 C-terminal 12 aa]	0.683 ± 0.0069
IKLLKTHNRMSL [YNL277W-A C-terminal 12 aa]	0.696 ± 0.036
